The record followed here is US20130230533A1 (Regeneron, published 2013).

B1: H4H1707N (antibody, V domains shown)
VH: EGQLLESGGGLAQPGGSLRLSCAASGITFGRYAMSWVRQAPGKGLEWVSLISGSGGSTYHADSVKGRFTISRDNSKNTLYLQMNSLRAEDTAVYYCAIYNNYNWFDPWGQGTLVTVSS
VL: EIVLTQSPGTLSLSPGERATLSCRASQSVSSNYLAWYQQKPGQAPRLLIYDASSRATDIPDRFSGSGSGTDFTLTISRLEPEDFAVYYCQQYGSSPRTFGQGTKVEIK
notes: Human IgG4 Fc (H4H)
B2: H4H1763N (antibody, V domains shown)
VH: QIQLVQSGAEMKRPGTSVKVSCKASGYTFTSYGINWVRQAPGQGLEWMGWISAYNGDTNYAQKLQGRVTMTTDTSTTTAYMEVRSLRSDDTAVYYCARFLTGTKDYYYGMDVWGQGTTVTVSS
VL: DIQMTQSPSSLSASVGDRVTITCQASQDISNFLNWYQQKPGKAPDLLINDASILETGVPSRFSGSGSGTDFTLTINNLQPEDIATYYCQQYDNLPLTFGGGTKVEIK
notes: Human IgG4 Fc (H4H)
B3: H4H1764N (antibody, V domains shown)
VH: QVQLVESGGGVVQPGRSLRLSCAASGFTFSDYGMHWVRQAPGKGLEWVAVIWNDGSNKNYADSVKGRFSISSDSSKNTLYLHMNSLRAEDTAVYYCARSLYSTSPWYFDLWGRGTLVTVSS
VL: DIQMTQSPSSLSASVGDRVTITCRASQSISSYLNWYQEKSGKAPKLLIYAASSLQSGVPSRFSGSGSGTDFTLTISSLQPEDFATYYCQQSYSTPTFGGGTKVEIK
notes: Human IgG4 Fc (H4H)
B4: H4H1713N (antibody, V domains shown)
VH: QVQLVQSGAEVKKPGASVKVSCKASGHTFTNYYIHWVRQAPGQGLEWMGITNPNDGNTRYAQKFQGRISMTWDTSTSTVFMELSSLKSEDTAVYYCAGLRYWFFDLWGRGTPVTVSS
VL: DIQMTQSPSSVSASVGDRVTITCRASQDISSWLAWYQQKPGKAPNLLIFAASSLQSGVPSRFSGSGSGTDFTLTISSLQPEDFGTYYCQQTDNFPRTFGQGTKVEIN
notes: Human IgG4 Fc (H4H)
B5: H2M1811N (antibody, mouse IgG2, V domains shown)
VH: QVQLVQSGAEAREPGASVRVSCKASGYTFTDYFIHWVRQAPGQGLEWMGWINPNSGATNFAQKFQGRVTMTRDTSLITAYMDLSRLKSDDAAVFYCARDVDGSGWYLDFWGQGTLVTVSS
VL: EIVLTQSPATLSLSPGERATLSCRASQSVSIYLAWYQQKPGQAPRLLIYDASNRATGIPARFSGSGSGTDFTLTISRLEPEDFAVYYCQQRSDWPPSITFGQGTRLEIK
notes: Human variable domains, mouse IgG2 Fc (H2M)
B6: H3M1766N (antibody, V domains shown)
VH: EVQLVESGGGLAQPGGSLRLSCAASGFTFSSYEMNWVRQAPGKGLEWVSYITTSGSTIYYADSVKGRFTMSRDNAKKSLYLEMNSLRAEDTAVYYCAREECTNGVCYKDYQYYGMDVWGQGTTVTVSS
VL: DIQMTQSPSSVSASVGDRVTITCRASQNINTWLAWYQQKPGKVPKLLIYAASSLQSGVPSRFSGSGSGTDFTLTISSLQPEDFATYYCQQANSFPLTFGGGTKVEIK
notes: Human variable domains, mouse Fc (H3M); also called H2M1766N

The first assay has as its target T1, Dimeric monkey CD48-mFc (monkey).
T1 construct: Soluble monkey CD48 with a C-terminal Fc fusion [mFc]; the whole entry is the construct
T1 chain: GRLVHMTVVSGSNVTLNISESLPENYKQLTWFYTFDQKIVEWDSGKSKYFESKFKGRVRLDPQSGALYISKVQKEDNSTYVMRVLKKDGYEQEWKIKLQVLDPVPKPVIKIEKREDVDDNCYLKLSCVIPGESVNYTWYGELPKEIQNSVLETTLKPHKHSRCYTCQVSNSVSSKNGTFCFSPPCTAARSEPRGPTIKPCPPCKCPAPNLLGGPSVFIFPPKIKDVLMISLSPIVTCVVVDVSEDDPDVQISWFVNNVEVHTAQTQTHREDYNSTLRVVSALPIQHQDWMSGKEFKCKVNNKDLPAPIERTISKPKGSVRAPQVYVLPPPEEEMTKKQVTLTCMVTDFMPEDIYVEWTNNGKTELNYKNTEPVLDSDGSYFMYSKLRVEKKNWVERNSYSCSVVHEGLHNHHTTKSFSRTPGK
Briefly: SPR (Biacore), antibody captured by anti-Fc, CD48 in solution, 25 C. On the procedure:
(§1) Measurements were conducted on a T100-2 BIACORE™ instrument (Biacore Life Sciences division of GE Healthcare, Piscataway, N.J.). Antibodies (either with mouse Fc [designated “H2M” or “H3M”] or human IgG4 Fc [designated “H4H”]) were captured through an anti-Fc chip surface, and CD48 was flowed over the surface either in a monomeric (soluble CD48 expressed with a myc-myc-hexa-histidine C-terminal tag [mmH]) or dimeric (soluble CD48 expressed with a C-terminal Fc fusion [mFc]) format.
(§2) The soluble CD48 was applied to the flow cell in separate injections at different concentrations, and kinetic association (kₐ) and dissociation (kd) rate constants were determined by fits to the kinetic binding data using Biacore software. Binding dissociation equilibrium constants and dissociation half-times were calculated from the kinetic rate constants as: KD=kd/kₐ; t_{1/2}=(ln 2/kd) (units: ka=M⁻¹*s⁻¹; kd=s⁻¹; KD=M; T½=min) (Tables 3-6).
On the technique in general: In SPR one partner is held on a chip, and binding of the other changes the refractive index at the surface.
As a reminder, the Kd is the constant that tells how readily two partners part at equilibrium. As a reminder, the koff is a measure of how fast the partners let go of each other. One may read the kon as the second-order rate constant of association. The molecule B1 came in with an equilibrium dissociation constant (Kd) of 1.48 nM, a T½ of 10 min, a koff of 0.00119 s⁻¹ and an on-rate (kon) of 805000 M⁻¹ s⁻¹.
The matching figures for B2: 0.0519 nM, 168 min, 6.88e-05 s⁻¹ and 1.33e+06 M⁻¹ s⁻¹.
For B3 the same measures were 0.525 nM, 88 min, 0.000132 s⁻¹ and 251000 M⁻¹ s⁻¹.
B4: binding was characterised by a dissociation constant (Kd) of 0.281 nM, the T½ came out at 48 min, the dissociation rate constant (koff) is 0.000242 s⁻¹ and the on-rate (kon) was found to be 861000 M⁻¹ s⁻¹.

The target of the next assay is T2, Monomeric monkey CD48-mmH (monkey).
T2 construct: Soluble monkey CD48 with a myc-myc-hexa-histidine C-terminal tag; the whole entry is the construct; also called mfCD48-mmH
T2 chain: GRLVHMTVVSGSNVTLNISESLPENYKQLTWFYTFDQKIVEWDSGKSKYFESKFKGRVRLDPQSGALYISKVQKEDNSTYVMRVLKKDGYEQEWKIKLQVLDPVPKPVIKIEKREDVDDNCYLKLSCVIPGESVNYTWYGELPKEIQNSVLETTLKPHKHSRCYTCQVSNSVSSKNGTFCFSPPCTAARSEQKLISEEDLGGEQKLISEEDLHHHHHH
The assay is described as above. The method, then: as §1, §2
B1: the affinity, expressed as Kd, was 1.25 nM; the T½ is 32 min; the dissociation rate constant (koff) was found to be 0.000362 s⁻¹; the kon was determined as 289000 M⁻¹ s⁻¹.
For B2 the same measures were 2.34 nM, 9 min, 0.00124 s⁻¹ and 527000 M⁻¹ s⁻¹.
For B3 the same measures were 2.34 nM, 56 min, 0.000206 s⁻¹ and 87700 M⁻¹ s⁻¹.
The matching figures for B4: 0.843 nM, 44 min, 0.000265 s⁻¹ and 315000 M⁻¹ s⁻¹.

A further assay has as its target T3, Monomeric human CD48-mmH (human).
T3 chain: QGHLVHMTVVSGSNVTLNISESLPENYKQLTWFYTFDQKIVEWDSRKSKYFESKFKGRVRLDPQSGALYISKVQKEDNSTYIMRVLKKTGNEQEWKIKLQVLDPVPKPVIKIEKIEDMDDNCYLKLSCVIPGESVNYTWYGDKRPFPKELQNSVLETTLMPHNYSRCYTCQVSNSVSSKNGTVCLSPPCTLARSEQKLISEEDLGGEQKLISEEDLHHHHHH
Nature of the assay: SPR (Biacore), antibody captured by anti-Fc, CD48 in solution, 37 C. The method, then: as §1, §2
B1 displayed a dissociation constant (Kd) of 9.63 nM, a T½ of 4 min, a koff of 0.00273 s⁻¹ and a kon of 284000 M⁻¹ s⁻¹.
B5 returned a Kd of 22.7 nM, a T½ of 4 min, a koff of 0.00295 s⁻¹ and an on-rate (kon) of 130000 M⁻¹ s⁻¹.
The matching figures for B2: 12.7 nM, 1 min, 0.0169 s⁻¹ and 1.33e+06 M⁻¹ s⁻¹.
Turning to B3, the Kd was determined as 109 nM, the T½ stood at 1 min, the koff is 0.0114 s⁻¹ and the kon stood at 105000 M⁻¹ s⁻¹.
For B6 the same measures were 3.84 nM, 19 min, 0.00062 s⁻¹ and 161000 M⁻¹ s⁻¹.
In turn, B4 gave a Kd of 2.23 nM, a T½ of 18 min, a koff of 0.000636 s⁻¹ and an association rate constant (kon) of 286000 M⁻¹ s⁻¹.

Another assay concerns the target T1, Dimeric monkey CD48-mFc. Described as above. The method, then:
as §1, §2
The molecule B1 registered a Kd of 3.2 nM, a T½ of 2 min, a koff of 0.00524 s⁻¹ and an on-rate (kon) of 1.64e+06 M⁻¹ s⁻¹.
For B2 the same measures were 0.047 nM, 101 min, 0.000114 s⁻¹ and 2.42e+06 M⁻¹ s⁻¹.
The matching figures for B3: 7.4 nM, 8 min, 0.00142 s⁻¹ and 192000 M⁻¹ s⁻¹.
The matching figures for B4: 0.3 nM, 22 min, 0.000516 s⁻¹ and 1.72e+06 M⁻¹ s⁻¹.

A further assay deals with T4, Dimeric human CD48-mFc (human).
T4 construct: the whole entry is the construct; also called hCD48-mFc
T4 chain: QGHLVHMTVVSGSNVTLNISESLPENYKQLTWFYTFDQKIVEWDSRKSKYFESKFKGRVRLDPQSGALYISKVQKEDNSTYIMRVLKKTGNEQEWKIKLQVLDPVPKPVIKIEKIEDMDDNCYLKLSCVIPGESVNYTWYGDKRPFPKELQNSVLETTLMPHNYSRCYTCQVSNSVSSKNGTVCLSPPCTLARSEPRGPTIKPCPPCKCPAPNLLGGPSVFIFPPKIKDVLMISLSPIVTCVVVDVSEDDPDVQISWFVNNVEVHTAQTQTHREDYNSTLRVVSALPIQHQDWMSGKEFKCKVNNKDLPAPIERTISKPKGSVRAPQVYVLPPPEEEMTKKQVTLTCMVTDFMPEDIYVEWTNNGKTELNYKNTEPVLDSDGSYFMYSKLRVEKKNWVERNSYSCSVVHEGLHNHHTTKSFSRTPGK
Described as above. On the procedure: as §1, §2
In turn, B1 had a Kd of 0.0654 nM, a T½ of 180 min, a koff of 6.42e-05 s⁻¹ and an on-rate (kon) of 981000 M⁻¹ s⁻¹.
The matching figures for B5: 0.966 nM, 45 min, 0.000256 s⁻¹ and 265000 M⁻¹ s⁻¹.
The matching figures for B2: 0.0267 nM, 184 min, 6.28e-05 s⁻¹ and 2.35e+06 M⁻¹ s⁻¹.
The matching figures for B3: 0.33 nM, 116 min, 9.94e-05 s⁻¹ and 301000 M⁻¹ s⁻¹.
In turn, B6 gave an equilibrium dissociation constant (Kd) of 0.342 nM, a T½ of 36 min, a koff of 0.000324 s⁻¹ and a kon of 949000 M⁻¹ s⁻¹.
In turn, B4 came in with a Kd of 0.036 nM, a T½ of 255 min, a koff of 4.53e-05 s⁻¹ and a kon of 1.26e+06 M⁻¹ s⁻¹.

The next assay addresses T2, Monomeric monkey CD48-mmH. Described as above. On the procedure:
as §1, §2
In turn, B1 had a Kd of 3.72 nM, a T½ of 9 min, an off-rate constant (koff) of 0.00122 s⁻¹ and an on-rate (kon) of 327000 M⁻¹ s⁻¹.
B2 had a Kd of 2.49 nM, a T½ of 9 min, a koff of 0.00133 s⁻¹ and a kon of 534000 M⁻¹ s⁻¹.
The matching figures for B3: 2.91 nM, 19 min, 0.00062 s⁻¹ and 213000 M⁻¹ s⁻¹.
The matching figures for B4: 1.19 nM, 30 min, 0.000382 s⁻¹ and 320000 M⁻¹ s⁻¹.
